The text below walks through data of US4137307A, “Process for preparing haptoglobin aqueous solution using strong anion exchanger” (The Green Cross Corporation, priority 1973, dated 1979).

The test system of data set [1] is hemoglobin. Put plainly: Residual hemoglobin-binding capacity of haptoglobin after heat treatment (60° C., 10 hours). The format is physicochemical. Conditions: dialysate of Example 3.
In data set [2] the test system is hemoglobin. The description is as above. The format is physicochemical. Conditions: for Residual hemoglobin-binding capacity of haptoglobin after heat treatment: haptoglobin solution of Example 1, 60° C., 10 hours. As to the method:
In this example, the relation between the amount used and the stabilizing effects of various stabilizers was examined by measuring the residual hemoglobin-binding capacity of haptoglobin after heat treatment.
The stabilizers used were glycine and alanine as neutral amino acids, and mannitol and glucose as saccharides. Each of the said stabilizers was dissolved in haptoglobin solution in such proportions as shown in Table 7 and then heated at 60° C. for 10 hours. Thereafter, the hemoglobin-binding capacity of the haptoglobin of the solution was measured, and the ratio thereof to the value before heat treatment represented by percentage.
For comparison, the haptoglobin solution without addition of stabilizer was subjected to the same heat treatment as above, and the hemoglobin-binding capacity of haptoglobin of the solution was measured.

Data set [3] concerns arterial blood pressure of the dog. Put plainly: Hypotensive activity (arterial blood pressure of the dog before and after administration). The format is in vivo. Conditions: less than 10% evaluated as hypotensive activity negative. As to the method: (§1) The acute toxicity was represented by LD50 measured when the aqueous haptoglobin solution was intravenously injected into mice and rats. The hypotensive activity was represented by the ratio of arterial blood pressure of the dog before and after administration of haptoglobin solution. A ratio less than 10% was evaluated as hypotensive activity negative. The measurement of HB-Ag was made by the radioimmunoassay method (Sadatake Kato et al.: Japanese Patent Publication No. 49,919/73) using Ausria-125 kit, products of Abbott Co.

The test system of another data set is Mice. Put plainly: Acute toxicity, LD50, intravenous, mice. The class given is in vivo. As to the method:
as §1

In a further data set the test system is Rats. Put plainly: Acute toxicity, LD50, intravenous, rats. The format is in vivo. As to the method: as §1
A further data set relates to HB-Ag. Briefly: HB-Ag measurement by radioimmunoassay (Ausria-125 kit). On the set-up: species or system hepatitis B virus. As to the method:
as §1

Data set [4] relates to hemoglobin. Briefly: Hemoglobin-binding capacity of haptoglobin (polyacrylamide gel thin layer electrophoresis, benzidine staining). Conditions: maximum addition of hemoglobin with no free hemoglobin observed.
For another data set, the system named is mouse or rat and humans. Put plainly: Toxicity / adverse effects on injection of the aqueous solution of haptoglobin. The format is in vivo, human.
The test system of data set [5] is rabbits. Put plainly: Histopathological examination of rabbits after haptoglobin and/or hemoglobin administration. The class given is in vivo. The source says: (§2) Thirty mature rabbits of body weight ranging from 2.3 to 2.9 kg were equally divided into 3 groups (10 rabbits per group), and continuously administered with haptoglobin and/or hemoglobin, and then the survival of the rabbits was observed. At the end of the observation, the survived rabbits were anatomized, and various organs thereof were subjected to histopathological examination.
(§3) A 5% solution of haptoglobin in isotonic sodium chloride solution prepared according to the present invention was continuously administered drop-wise intravenously once a day at a dose of 0.8 g/kg (body weight).
(§4) A 10% solution of hemoglobin in isotonic sodium chloride solution isolated from red blood cells of the rabbit was continuously administered drop-wise intraveneously once a day at a dose of 0.4 g/kg (body weight).
(§5) Hemoglobin and then the haptoglobin of the invention were administered in the same manner and dose in the case of both the first and the second groups.

For a further data set, the system named is patient. Put plainly: Clinical application to a patient (pelvis fracture, urethra rupture and bleeding shock). The format is in vivo, human. The source says: An example, in which the haptoglobin prepared in Example 2 was clinically applied to a patient, is illustrated below.
The patient was a person, who had been severely stricken on the left waist with lumber that had fallen down during their work and had been sent to hospital as an emergency case. The diagnosis was pelvis fracture, urethra rupture and bleeding shock. Immediately after hospitalization, the patient was subjected to an operation for urinary tract reconstruction. During the operation, the total amount of bleeding was 7,500 ml, the total amount of blood transfused was 4,200 ml, and the total artificial expander transfused was 4,200 ml. […] The clinical progress of the patient after the operation is shown in the accompanying drawing. […] At this stage, 250 ml of a 5% solution of the haptoglobin prepared according to the present invention in isotonic sodium chloride solution was administered to the patient drop-wise intravenously.

Data set [6] relates to rabbits. Put plainly: Survival of rabbits after haptoglobin and/or hemoglobin administration. The class given is in vivo. Conditions: fourth day, 10 tested.
Text: as §2, §3, §4, §5
On the fourth day of administration, the survival of the rabbits of each group was examined.

The mark [7] stands for this setting: 250 ml of a 5% solution, drop-wise intravenously.
[8] abbreviates: First group: haptoglobin 0.8 g/kg i.v. once a day.
The mark [9] stands for this setting: Third group: hemoglobin 0.4 g/kg then haptoglobin 0.8 g/kg i.v. once a day.
The mark [10] stands for this setting: Second group: hemoglobin 0.4 g/kg i.v. once a day.

In the case of `OC[C@@H](O)[C@@H](O)[C@H](O)[C@@H](O)CO` [Sorbitol, sorbitol], the “Residual hemoglobin-binding capacity of haptoglobin after heat treatment” value (shortened to “Residual hemoglobin-binding capacity”) in the data set with hemoglobin [1] (stabilizer amount 20%) is 76%.
On to `NCC(=O)O` [Glycine, glycine], for which the “Residual hemoglobin-binding capacity” value came out at 92% in the data set with hemoglobin [1] (stabilizer amount 20%); 20% with hemoglobin [2] (stabilizer amount 2.25%); 35% in the data set on hemoglobin [2] (stabilizer amount 5%); 70% with hemoglobin [2] (stabilizer amount 10%); 95% with hemoglobin [2] (stabilizer amount 15%); 95% with hemoglobin [2] (stabilizer amount 20%).
In turn, “Example 2 before treatment: haptoglobin solution of Example 2 before the treatment with the ion exchanger” came in with a Hypotensive activity in [3] of 12.0%.
Take “Experiment 4: haptoglobin solution by the method of Example 1 with CM-cellulose, non-adsorbed fraction, 0.05 M phosphate buffer (pH 7.0)”: the LD50 – broadly, the dose expected to kill half of the subjects tested – in the data set with Mice was no less than 11700 mg/kg; in the data set on Rats, no less than 10500 mg/kg. Besides, the HB-Ag entry with HB-Ag is on record as “Negative”. Moreover, the Hemoglobin-binding capacity in the data set on hemoglobin [4] is listed as 0.61 mg hemoglobin/mg haptoglobin. The same compound returned a Hypotensive activity in [3] of 9.8%.
The corresponding values for “Example 2: sterile aqueous haptoglobin solution from Cohn fraction IV, heated with 20% mannitol, purified on GE Cellulose (guanidoethyl cellulose)” are no less than 12000 mg/kg, no less than 10000 mg/kg, “Negative”, 0.68 mg hemoglobin/mg haptoglobin and 6.0%.
Compound “Example 1 before treatment: haptoglobin solution of Example 1 before the treatment with the ion exchanger” came in with a Hypotensive activity in [3] of 18%.
As to `OC[C@H]1O[C@@](CO)(O[C@H]2O[C@H](CO)[C@@H](O)[C@H](O)[C@H]2O)[C@@H](O)[C@@H]1O` [Sucrose, sucrose], in the data set on hemoglobin [1] (stabilizer amount 20%), the “Residual hemoglobin-binding capacity” value was 68%.
Take `C[C@H](N)C(=O)O` [Alanine, alanine]: the “Residual hemoglobin-binding capacity” value turned out to be 83% in the data set on hemoglobin [1] (stabilizer amount 20%), 50% in the data set on hemoglobin [2] (stabilizer amount 15%) and 75% in the data set with hemoglobin [2] (stabilizer amount 20%).
For `OC[C@@H](O)[C@@H](O)[C@H](O)[C@H](O)CO` [Mannitol, mannitol], the “Residual hemoglobin-binding capacity” value is on record as 85% in the data set on hemoglobin [1] (stabilizer amount 20%); 15% in the data set on hemoglobin [2] (stabilizer amount 5%); 40% with hemoglobin [2] (stabilizer amount 7%); 55% in the data set on hemoglobin [2] (stabilizer amount 10%); 80% in the data set on hemoglobin [2] (stabilizer amount 15%); 85% with hemoglobin [2] (stabilizer amount 20%).
“Experiment 5: haptoglobin solution by the method of Example 1 with CM-Sephadex, non-adsorbed fraction, 0.05 M phosphate buffer (pH 7.0)”: the LD50 in the data set on Mice is no less than 11700 mg/kg; with Rats, no less than 10500 mg/kg. For the same compound, the HB-Ag entry in the data set with HB-Ag was “Negative”. Further, in the data set on hemoglobin [4], the Hemoglobin-binding capacity is 0.62 mg hemoglobin/mg haptoglobin. This compound also returned a Hypotensive activity in data set [3] of 9.0%.
Take haptoglobin: the “Residual hemoglobin-binding capacity” value with hemoglobin [1] (no stabilizer (None)) was found to be 0%. Besides, the Adverse effect result in the data set with mouse or rat and humans (5% solution in isotonic sodium chloride, drop-wise intravenously, human adult) was “no adverse effect is observed at all”. The Toxicity result in the data set on mouse or rat and humans (injected in large quantities into mouse, rat, humans) is “extremely low”. In addition, in the data set with mouse or rat and humans (mouse or rat and humans), the “Adverse effects on injection in large quantities” value is recorded as “no adverse effects”. In the data set on rabbits [5] (First group: haptoglobin for 14 days), the Histopathology entry was “no change was observed in its kidney, spleen and lung, and only slight narrowing of sinusoid and deposition of iron were observed in the liver”. The “Prevention of renal troubles caused by hemoglobin; adverse effects (conclusion)” value in the data set on rabbits [5] (rabbits, Example 6) was “does not substantially bring about any adverse effects and has the excellent effect of preventing renal troubles caused by hemoglobin”. Also, the “Hemoglobin-binding capacity after heat treatment in the absence of stabilizer” value with hemoglobin [2] (absence of stabilizer) is “lost its hemoglobin-binding capacity”. In the data set with hemoglobin [2] (aqueous solution without stabilizer, 60° C. for 10 hours), the “Activity of haptoglobin after heat treatment” value is given as “substantially nil”. Moreover, the “Residual hemoglobin-binding capacity” value with hemoglobin [2] (no stabilizer (None)) was “≈ 0%”. In addition, in the data set with hemoglobin [2] (with stabilizer, 60° C. and 10 hours), the “Haptoglobin activity maintained after heat treatment” value is 95%. In addition, in the data set with patient (setting [7]), the Amount of urine result is “increase” and the “General symptoms of the patient” value is recorded as “gradually improved”. The “Time to disappearance of blood pigments from the urine” value in the data set on patient (250 ml of a 5% solution, drop-wise intravenously, person) is reported as “blood pigments disappeared from the urine within several hours after haptoglobin administration”. Moreover, the “Adverse effect due to the administration” value with patient (even 6 months after recovery) is “No adverse effect”. In the data set with rabbits [6] (setting [8]), this compound registered a Number of dead of 0 and a Number of survival of 10. In the data set with rabbits [6] (setting [9]), this compound gave a Number of dead of 1 and a Number of survival of 9.
For hemoglobin, the Histopathology entry in the data set with rabbits [5] (Second group: hemoglobin for 6 days) was “marked deposition of iron was observed from proximal tuble to collecting tube of the kidney, thinning of renal epithelial cells was observed, propagation of reticular cells was observed in the spleen, and marked narrowing of sinusoid and deposition of iron were observed in the liver”. In the data set on rabbits [6] (setting [10]), the Number of dead worked out at 7 and the Number of survival worked out at 3.
“Example 3 before treatment: haptoglobin solution of Example 3 before the treatment with the ion exchanger” registered a Hypotensive activity in [3] of 24.0%.
On to `OC[C@H]1OC(O)[C@H](O)[C@@H](O)[C@@H]1O` (some centres unmarked) [Glucose, glucose], for which the “Residual hemoglobin-binding capacity” value with hemoglobin [1] (stabilizer amount 20%) turned out to be 72%; with hemoglobin [2] (stabilizer amount 15%) it was 45%; in the data set with hemoglobin [2] (stabilizer amount 20%) it was 60%.
